According to paper PMC6506517, “Structure of Mycobacterium tuberculosis phosphatidylinositol phosphate synthase reveals mechanism of substrate binding and metal catalysis” (Communications Biology, 2019):

Target: the molecule itself
Assay: crystal structure

B1: Mycobacterium tuberculosis phosphatidylinositol phosphate synthase (PgsA1) (enzyme)
chain: MSKLPFLSRAAFARITTPIARGLLRVGLTPDVVTILGTTASVAGALTLFPMGKLFAGACVVWFFVLFDMLDGAMARERGGGTRFGAVLDATCDRISDGAVFCGLLWWIAFHMRDRPLVIATLICLVTSQVISYIKARAEASGLRGDGGFIERPERLIIVLTGAGVSDFPFVPWPPALSVGMWLLAVASVITCVQRLHTVWTSPGAIDRMAIPGKGDRENLYFQ
notes: also called M. tuberculosis PgsA1; Rv2612c
binding result: binds
